Measured values taken from US20230272117A1, “ANTI ABCC1 ANTIBODIES AND USES THEREOF” (Kenjockety Biotechnology, Inc., priority 2020, published 2023).

Experiments:
CT26 tumor = assay: CT26 syngeneic mouse tumor model; assay type: in vivo; details: for effect of doxorubicin on the inhibition of tumor growth by the antibody: CT26, antibody 3 mg/kg + Doxorubicin 2 mg/kg; for tumor growth in vivo: CT26 in BALB/c mice, antibody 3 mg/kg intraperitoneally twice a week for two weeks
Experimental: Syngeneic models are allografts immortalized from mouse cancer cell lines, which are then grafted back into the same inbred immunocompetent mouse strain. CT26 is an N-nitroso-N-methylurethane-(NNMU) induced undifferentiated fibroblastic colon carcinoma cell line established from BALB/c mice with aggressive colon carcinoma. C26 cells were purchased from ATCC® (CRL-2638™) and maintained in RPMI-1640 medium supplemented with 10% FBS and 1% penicillin, 1% streptomycin at 37° C., 5% CO2. Cell lines used were authentic and confirmed to be mycoplasma negative. The cells are adherent with a fibroblast morphology and will form tumors and metastases post implantation into syngeneic BALB/c mice or immunocompromised mice.
1×10^6 cells diluted inPBS:Matrigel (1:1) were subcutaneously implanted using a 27G insulin syringe into anesthetized […] old female Balb/c mice under aseptic conditions. All animal maintenance, handling, surveillance, and animal procedures were performed in accordance with an approval from the APLAC protocol.
Once tumors reached 100-150 mm^3, mice were randomized into 6 groups of five mice each: • 1. Control isotype 3 mg/kg, • 2. Control isotype 3 mg/kg+Doxorubicin 2 mg/kg • 3. KNJY C1-831 3 mg/kg • 4. KNJY C1-831 3 mg/kg+Doxorubicin • 5. KNJY C1-787A 3 mg/kg • 6. KNJY C1-787A 3 mg/kg+Doxorubicin 2 mg/kg.
Doxorubicin is soluble in water. All test articles were dosed intraperitoneally twice a week for two consecutive weeks. Antibodies were dosed 4 hr prior to Doxorubicin.
Tumors were measured three times a week using a calibrated Vernier Caliper and tumor volume calculated as per the formula ½*L*S*S, where L is the long axis and S is the short axis of the tumor. Body weights were recorded before treatment started and were continuously monitored throughout the study. Animals were euthanized when turning moribund according to the above-mentioned predefined criteria rapid weight loss, loss of ability to ambulate, labored respiration, or inability to drink or feed to avoid animal suffering.

human ABCC1 [1] = molecular target: T1, human ABCC1 (Homo sapiens, UniProt P33527); assay: Titration binding assay of humanized antibodies (FIGS. 8A-8C), human ABCC1; design: expressed in transfected cells; host or cells: 293T (HEK 293T) cells; details: cell line not stated
Experimental: (§1) Binding titration of recombinant antibodies to KPC1 transfectants was performed by serial dilution of antibodies from about 666 nM, Diluted antibody in flow cytometry buffer was incubated with cells on ice for 30 min. After 2 washes with flow cytometry buffer, bound antibody was detected with PE-labeled F(ab′)2 fragment goat anti-human IgG (Jackson ImmunoResearch) diluted 1:200 in flow cytometry buffer and incubated with cells for 20 min on ice. After 2 washes with flow cytometry buffer fluorescence was measured on an Attune NxT flow cytometer. Data were analyzed with GraphPad Prism 8.0 software to determine EC50's.

cynomolgus ABCC1 [2] = molecular target: T2, cynomolgus ABCC1 (Macaca fascicularis, UniProt Q864R9); assay: Titration binding assay of humanized antibodies (FIGS. 8A-8C), cynomolgus ABCC1; design: expressed in transfected cells; host or cells: 293T cells; details: cell line not stated
Experimental: as §1

human ABCC1 [3] = molecular target: T1, human ABCC1; assay: ABCC1 efflux assay in HEK293T cells expressing human ABCC1; assay type: cell-based; design: expressed in transfected cells; host or cells: 293T (HEK 293T) cells; details: HEK293T cells expressing human ABCC1, Calcein AM fluorescence
Experimental: HEK 293T cells expressing human ABCC1 were washed several times and aliquoted into 96-well plates as 50 μl aliquots/well at a cell density of 1×10^6 cells per ml in phenol red-free DMEM. Cells were mixed with 50 μl antibodies and incubated for 1.5 h at 37° C. The cells were then washed twice and finally resuspended in […] PBS. Calcein AM fluorescence was measured by flow cytometry.

human ABCC1 [4] = molecular target: T1, human ABCC1; assay: Titration binding to human ABCC1-overexpressing rat C6 glioma cells (FACS); design: expressed in transfected cells
cynomolgus ABCC1 [5] = molecular target: T2, cynomolgus ABCC1; assay: Titration binding to cynomolgus ABCC1-overexpressing rat C6 glioma cells (FACS); design: expressed in transfected cells

T1 sequence (P33527 whole entry, the tested form may be a part): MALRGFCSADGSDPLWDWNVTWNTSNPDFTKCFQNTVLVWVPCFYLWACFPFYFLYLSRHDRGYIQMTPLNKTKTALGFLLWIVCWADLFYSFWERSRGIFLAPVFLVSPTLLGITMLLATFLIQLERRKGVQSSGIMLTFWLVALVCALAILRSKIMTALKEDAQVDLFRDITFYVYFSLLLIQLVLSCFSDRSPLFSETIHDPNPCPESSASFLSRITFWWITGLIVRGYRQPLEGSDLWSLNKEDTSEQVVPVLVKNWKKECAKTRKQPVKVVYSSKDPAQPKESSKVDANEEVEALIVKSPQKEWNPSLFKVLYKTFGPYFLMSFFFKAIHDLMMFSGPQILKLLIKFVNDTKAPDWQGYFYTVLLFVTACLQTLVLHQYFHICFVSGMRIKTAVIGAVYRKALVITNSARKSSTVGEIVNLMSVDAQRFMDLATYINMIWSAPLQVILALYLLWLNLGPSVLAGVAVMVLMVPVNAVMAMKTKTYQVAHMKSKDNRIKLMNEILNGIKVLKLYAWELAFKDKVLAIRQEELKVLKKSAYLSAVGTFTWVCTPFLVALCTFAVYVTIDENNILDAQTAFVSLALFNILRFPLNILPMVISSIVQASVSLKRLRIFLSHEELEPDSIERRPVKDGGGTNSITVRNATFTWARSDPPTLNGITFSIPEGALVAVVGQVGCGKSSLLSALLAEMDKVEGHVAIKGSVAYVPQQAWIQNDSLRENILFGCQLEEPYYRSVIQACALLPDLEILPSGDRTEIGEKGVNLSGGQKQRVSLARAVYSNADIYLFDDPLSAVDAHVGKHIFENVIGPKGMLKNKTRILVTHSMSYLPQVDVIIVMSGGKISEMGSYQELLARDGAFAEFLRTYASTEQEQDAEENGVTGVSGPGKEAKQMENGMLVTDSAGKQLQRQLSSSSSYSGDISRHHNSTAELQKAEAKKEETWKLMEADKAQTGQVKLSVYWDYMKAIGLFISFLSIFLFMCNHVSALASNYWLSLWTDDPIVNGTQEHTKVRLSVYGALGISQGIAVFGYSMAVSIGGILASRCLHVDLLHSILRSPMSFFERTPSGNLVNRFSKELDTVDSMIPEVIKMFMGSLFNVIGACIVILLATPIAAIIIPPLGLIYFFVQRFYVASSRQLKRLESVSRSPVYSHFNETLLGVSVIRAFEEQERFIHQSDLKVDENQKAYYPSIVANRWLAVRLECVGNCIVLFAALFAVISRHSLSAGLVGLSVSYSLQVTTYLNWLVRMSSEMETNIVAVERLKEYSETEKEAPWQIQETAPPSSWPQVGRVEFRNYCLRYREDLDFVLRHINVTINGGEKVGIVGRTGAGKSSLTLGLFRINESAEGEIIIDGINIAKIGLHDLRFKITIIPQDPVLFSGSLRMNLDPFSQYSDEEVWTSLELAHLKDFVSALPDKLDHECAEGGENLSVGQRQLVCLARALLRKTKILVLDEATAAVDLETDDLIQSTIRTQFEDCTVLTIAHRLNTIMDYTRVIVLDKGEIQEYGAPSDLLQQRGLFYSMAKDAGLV
T2 sequence (Q864R9 whole entry): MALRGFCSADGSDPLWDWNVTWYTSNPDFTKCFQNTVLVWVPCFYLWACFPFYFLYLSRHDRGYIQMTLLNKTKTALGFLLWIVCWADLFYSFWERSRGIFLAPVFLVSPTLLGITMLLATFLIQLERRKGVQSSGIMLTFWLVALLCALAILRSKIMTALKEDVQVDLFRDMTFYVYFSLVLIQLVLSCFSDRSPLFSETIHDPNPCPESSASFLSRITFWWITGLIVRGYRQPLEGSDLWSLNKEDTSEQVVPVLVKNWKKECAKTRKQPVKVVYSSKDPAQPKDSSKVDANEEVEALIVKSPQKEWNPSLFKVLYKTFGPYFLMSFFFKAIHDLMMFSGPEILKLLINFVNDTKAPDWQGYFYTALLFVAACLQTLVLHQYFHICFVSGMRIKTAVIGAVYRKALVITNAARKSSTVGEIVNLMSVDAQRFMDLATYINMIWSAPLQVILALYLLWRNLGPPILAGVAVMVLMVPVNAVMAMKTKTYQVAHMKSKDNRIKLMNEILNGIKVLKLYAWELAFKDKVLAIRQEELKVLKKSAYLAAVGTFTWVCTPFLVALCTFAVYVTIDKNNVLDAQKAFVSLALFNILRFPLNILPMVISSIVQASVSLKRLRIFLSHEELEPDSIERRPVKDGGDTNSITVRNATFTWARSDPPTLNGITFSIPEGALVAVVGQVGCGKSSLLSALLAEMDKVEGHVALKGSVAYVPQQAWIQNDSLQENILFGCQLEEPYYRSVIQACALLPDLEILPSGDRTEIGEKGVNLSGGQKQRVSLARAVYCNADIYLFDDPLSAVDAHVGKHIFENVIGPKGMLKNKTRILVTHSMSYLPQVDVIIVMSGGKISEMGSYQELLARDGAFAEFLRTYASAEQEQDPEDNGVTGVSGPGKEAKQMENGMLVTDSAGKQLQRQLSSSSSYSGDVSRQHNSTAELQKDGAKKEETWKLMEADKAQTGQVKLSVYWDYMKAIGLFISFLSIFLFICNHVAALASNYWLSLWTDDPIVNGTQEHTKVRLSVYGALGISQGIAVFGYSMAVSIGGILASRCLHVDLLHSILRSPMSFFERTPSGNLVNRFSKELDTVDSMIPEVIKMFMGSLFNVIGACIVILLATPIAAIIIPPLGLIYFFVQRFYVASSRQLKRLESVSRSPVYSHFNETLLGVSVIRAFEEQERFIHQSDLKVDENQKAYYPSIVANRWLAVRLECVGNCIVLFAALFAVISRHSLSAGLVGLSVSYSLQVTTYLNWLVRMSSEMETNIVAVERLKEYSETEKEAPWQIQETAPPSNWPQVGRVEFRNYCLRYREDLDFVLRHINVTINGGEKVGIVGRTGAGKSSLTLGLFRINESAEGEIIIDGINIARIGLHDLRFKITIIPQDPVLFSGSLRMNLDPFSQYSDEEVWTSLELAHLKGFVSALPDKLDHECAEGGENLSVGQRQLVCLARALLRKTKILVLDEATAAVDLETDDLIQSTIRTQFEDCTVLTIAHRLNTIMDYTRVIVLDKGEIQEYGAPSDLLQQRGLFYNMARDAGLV

Molecule | binding to human ABCC1 in the titration binding assay (human ABCC1 [1]) | binding to cynomolgus ABCC1 in the titration binding assay (cynomolgus ABCC1 [2]) | inhibition of the efflux function of the ABCC1 transporter (human ABCC1 [3]) | binding to C6 cells overexpressing human ABCC1 (human ABCC1 [4]) | binding to C6 cells overexpressing cynomolgus ABCC1 (cynomolgus ABCC1 [5]) | also measured
C1.787a: anti-ABCC1 antibody, VH SEQ ID NO: 11, VL SEQ ID NO: 86 (antibody, listed as Rattus norvegicus, V domains shown) VH: EVQLTESGPGLVQPSQTLSLTCTVSGFSLTSNGVSWVRQPPGKGLEWIAAISSGGSTYYNSAFKSRLSISRHTSKSQVLLNMNSLQTEDTAMYFCARHRGYYWSNWGYFDYWGQGVMVTVSS VL: NIQLTQSPSLLSASVGDRVTLSCKGSQNINNYLAWYQQKLGEAPKLLIYKTNSLQTGIPSRFSGSGSGTDYTLTLSSLHSEDLATYYCCQYNDGYTFGAGTKLELK |  |  |  |  |  | effect of doxorubicin on the inhibition of tumor growth by the antibody (CT26 tumor): enhanced by doxorubicin; tumor growth in vivo (CT26 tumor): inhibit tumor growth
C1.831: anti-ABCC1 antibody, VH SEQ ID NO: 16, VL SEQ ID NO: 90 (antibody, listed as Rattus norvegicus, V domains shown) VH: EVQLTESGPGLVQPSQTLSLTCTVSGFSLTSNGVSWVRQPPGKGLEWIAAISSGGNIYYNSVLKSRLSISRDTSKSQVFLKMSSVQTEDTAIYFCTRERGWNYPFITNGYYFDYWGQGVMVTVSS VL: EIMLTQSPSLLSASVGDRVTLSCKAGQNINNYLAWYQQKLGEAPKLLIYNANSLQTGIPSRFSGSGSGTDYTLTISSLQPEDVATYFCQQYNSWYTFGAGTKLEIK |  |  |  |  |  | effect of doxorubicin on the inhibition of tumor growth by the antibody (CT26 tumor): enhanced by doxorubicin; tumor growth in vivo (CT26 tumor): inhibit tumor growth
C1.831.hu11: humanized anti-ABCC1 antibody, VH SEQ ID NO: 29, VL SEQ ID NO: 108 (antibody, V domains shown, humanized sequence) VH: EVQLQESGPGLVKPSETLSLTCTVSGFSLTSNGVSWVRQPPGKGLEWIAAISSGGNIYYNSVLKSRLTISRDTSKNQVSLKLSSVTAADTAVYYCTRERGWNYPFITNGYYFDYWGQGTLVTVSS VL: DIQLTQSPSSLSASVGDRVTITCKAGQNINNYLAWYQQKPGKAPKLLIYNANSLQTGIPSRFSGSGSGTDYTLTISSLQPEDFATYYCQQYNSWYTFGQGTKLEIK | bind both human and cynomolgus ABCC1 | bind both human and cynomolgus ABCC1 | significantly inhibit the efflux function |  |  | 
C1.861.hu11: humanized anti-ABCC1 antibody, VH SEQ ID NO: 33, VL SEQ ID NO: 110 (antibody, V domains shown, humanized sequence) VH: EVQLQESGPGLVKPSETLSLTCTVSGFSLTSNGVTWVRQPPGKGLEWIAAISSGGNIYYNSAVKSRLTISRDTSKNQVSLKLSSVTAADTAVYYCTRARGTTTAYVMDAWGQGTTVTVSS VL: DVQLTQSPSSLSASVGDRVTITCKSSQSLLYSGNQKNYLAWYQQKPGKSPKLLIYWASTRQSGVPSRFSGSGSGTDFTLTISSLQPEDVATYYCQQYYDVLMNMFGGGTKLEIK | bind both human and cynomolgus ABCC1 | bind both human and cynomolgus ABCC1 | significantly inhibit the efflux function |  |  | 
C1.861.hu21: humanized anti-ABCC1 antibody, VH SEQ ID NO: 34, VL SEQ ID NO: 110 (antibody, V domains shown, humanized sequence) VH: EVQLVESGGGLIQPGGSLRLSCAVSGFSLTSNGVTWVRQPPGKGLEWIAAISSGGNIYYNSAVKSRLTISRDTSKNTVYLQMNSLRAEDTAVYFCTRARGTTTAYVMDAWGQGTTVTVSS VL: DVQLTQSPSSLSASVGDRVTITCKSSQSLLYSGNQKNYLAWYQQKPGKSPKLLIYWASTRQSGVPSRFSGSGSGTDFTLTISSLQPEDVATYYCQQYYDVLMNMFGGGTKLEIK | bind both human and cynomolgus ABCC1 | bind both human and cynomolgus ABCC1 | significantly inhibit the efflux function |  |  | 
C1.844.hu21: humanized anti-ABCC1 antibody, VH SEQ ID NO: 32, VL SEQ ID NO: 109 (antibody, V domains shown, humanized sequence) VH: EVQLVESGGGLIQPGGSLRLSCAVSGFSLTSNGVIWVRQPPGKGLEWIAAISSGGNIYYNSGLKSRLTISRDTSKNTVYLQMNSLRAEDTAVYYCTRARGTTTAYVMDAWGQGTLVTVSS VL: DIVMTQSPDSLAVSLGERATINCKSSQSLLYSVNQKNYLAWYQQKPGQSPKLLIYWASTRQSGVPDRFSGSGSGTDFTLTISSLQAEDVAVYYCQQYYDTLMKMFGAGTKLELK | bind both human and cynomolgus ABCC1 | bind both human and cynomolgus ABCC1 | significantly inhibit the efflux function |  |  | 
C1.851.hu12: humanized anti-ABCC1 antibody, VH SEQ ID NO: 27, VL SEQ ID NO: 105 (antibody, V domains shown, humanized sequence) VH: EVQLQESGPGLVKPSETLSLTCTVSGFSLTNNGVSWIRQPPGKGLEWIAAISSGGNIYYNSAFKSRLTISRDTSKNQVSLKLSSVTAADTAVYYCARHRGYYGYNWGYFDYWGQGTLVTVSS VL: DIQLTQSPSSLSASVGDRVTITCKGSQNINNYLAWYQQKPGKAPKLLIYKTNSLQTGIPSRFSGSGSGTDYTLTISSLQPEDFATYYCYQYNNGYTFGQGTKLEIK |  |  |  | retain the ability to bind both human and cynomolgus ABCC1 | retain the ability to bind both human and cynomolgus ABCC1 | 
C1.851.hu15: humanized anti-ABCC1 antibody, VH SEQ ID NO: 27, VL printed as SEQ ID NO: 77, LCDR3 SEQ ID NO: 149 (antibody, V domains shown, humanized sequence; Mus musculus or humanized sequence) VH: EVQLQESGPGLVKPSETLSLTCTVSGFSLTNNGVSWIRQPPGKGLEWIAAISSGGNIYYNSAFKSRLTISRDTSKNQVSLKLSSVTAADTAVYYCARHRGYYGYNWGYFDYWGQGTLVTVSS VL: DVVMTQAPSSLSASLGERISLTCRASQDIYGSLNWFQQKPDGTIKLLIYGTSSLDSGVPKRFSGSRSGSDYSLTISSLESEDFADYYCLQYASSPYTFGGGTKLEIK |  |  |  | retain the ability to bind both human and cynomolgus ABCC1 | retain the ability to bind both human and cynomolgus ABCC1 | 
C1.851.hu14: humanized anti-ABCC1 antibody, VH SEQ ID NO: 27, VL printed as SEQ ID NO: 76, LCDR3 SEQ ID NO: 148 (antibody, V domains shown, humanized sequence; Mus musculus or humanized sequence) VH: EVQLQESGPGLVKPSETLSLTCTVSGFSLTNNGVSWIRQPPGKGLEWIAAISSGGNIYYNSAFKSRLTISRDTSKNQVSLKLSSVTAADTAVYYCARHRGYYGYNWGYFDYWGQGTLVTVSS VL: DVVMTQTPLSLPVSLGDQASISCRSSQSIVHSNGNTYLEWYLQKPGQSPKLLIYKVSNRFSGVPDRFSGSGTGTDFTLKISRVEAEDLGVYYCFQGSHVPRTFGGGTKLEIK |  |  |  | retain the ability to bind both human and cynomolgus ABCC1 | retain the ability to bind both human and cynomolgus ABCC1 | 
